In publication PMC10229617 (Nature Communications, 2023):

Target: the molecule itself
Experiment: native MS; MS spectrum of the archaeal α/β assembly mixture (assembled without the 60 °C step), 150 mM ammonium acetate pH 7.5

B1: T. acidophilum 20S proteasome α-ring (α7), tag cleaved (natural protein, Thermoplasma acidophilum)
chain: MQQGQMAYDRAITVFSPDGRLFQVEYAREAVKKGSTALGMKFANGVLLISDKKVRSRLIEQNSIEKIQLIDDYVAAVTSGLVADARVLVDFARISAQQEKVTYGSLVNIENLVKRVADQMQQYTQYGGVRPYGVSLIFAGIDQIGPRLFDCDPAGTINEYKATAIGSGKDAVVSFLEREYKENLPEKEAVTLGIKALKSSLEEGEELKAPEIASITVGNKYRIYDQEEVKKFL
notes: proteasome subunit alpha, Thermoplasma acidophilum; source: E. coli BL21(DE3), purified (HisTrap FF, TEV cleavage), in the assembly mixture
- stoichiometry N: 7
